In patent publication US11787839B2, “Targeting α2δ-1-bound glutamate receptors for treating diseases and disorders” (Board of Regents, The University of Texas System, priority 2017, dated 2023):

What was measured:
[1] = tested on: GluN1/GluN2A or GluN1/GluN2B NMDARs with or without α2δ-1 in HEK293 cells; assay: Whole-cell recording of NMDAR currents in HEK293 cells; format: cell-based, rat; set-up: α2δ-1 co-expression-induced increase in the NMDAR current density / NMDAR currents in cells expressing GluN1/GluN2A or GluN1/GluN2B alone: dose or concentration left out as unconfirmed
From the text: Cell culture and transfection: HEK293 cells (American Type Culture Collection, Manassas, Va.) were maintained in Dulbecco's modified Eagle medium (DMEM) (#10-017-CV, Corning, Manassas, Va.) supplemented with 10% fetal bovine serum (#F4135, Sigma-Aldrich) and penicillin/streptomycin (#30-002-CI, Corning). Cells were passaged after they reached a confluence of 80-90%, approximately every 2 days. HEK293 cells were transfected using PolyJet reagents (#SL100688, SignaGen Laboratories, Gaithersburg, Md.) at a GluN1/GluN2/α2δ-1 ratio of 1:3:1 (the DNA:PolyJet ratio was 1:3).
Whole-cell recording of NMDAR currents in HEK293 cells: Whole-cell recording was performed using a fire-polished pipette (3-5 MΩ) pulled from borosilicate glass and filled with an intracellular solution containing (in mM) 135 CsF, 2 MgCl2, 0.5 CaCl2, 5 EGTA, 2 Mg-ATP and 10 HEPES (pH, 7.25; 285 mOsmol/L). The extracellular solution contained (in mM) 160 NaCl, 2.5 KCl, 0.2 CaCl2, 10 HEPES, and 10 glucose (pH, 7.35; 300-310 mOsmol/L). Whole-cell currents were recorded with an EPC-10 amplifier (HEKA Instruments, Lambrecht, Germany) at a holding potential of −60 mV. Signals were filtered at 1 kHz, digitized at 10 kHz and acquired using the Pulse program (HEKA Instruments). After the whole-cell configuration was established, the cell membrane capacitance and series resistance were electronically compensated for. Glycine (10 μM) and NMDA (300 μM) were used to elicit NMDAR currents. For voltage-dependent Mg^2+ block experiments, the conductance-voltage relation of NMDARs was assessed when 2 mM MgCl2 was added to the extracellular solution. The sensitivity of NMDARs to Mg^2+ was estimated by fitting current-voltage relationships to a Boltzmann function (Zhou et al., 2012). All HEK293 cell recording experiments were performed at 25° C.

[2] = tested on: SHRs; assay: PVN microinjection and recording of ABP and RSNA in SHRs; format: in vivo, rat; details: 50 pmol
Experimental: PVN microinjection and recording of renal sympathetic nerve activity: Rats were anaesthetized via i.p. administration of a mixture of α-chloralose (60 mg kg-1) and urethane (800 mg kg-1) and mechanically ventilated with trachea cannulation. The arterial blood pressure (ABP) was monitored via a catheter placed in the left femoral artery, and heart rate (HR) was extracted from the pulsatile pressure wave. A retroperitoneal incision was made, and a branch of the left renal postganglionic sympathetic nerve was isolated under a surgical microscope. The renal sympathetic nerve was cut distally to ensure that afferent activity was not recorded. The ABP, HR and renal sympathetic nerve activity (RSNA) were recorded using a 1401-PLUS analogue-to-digital converter and Spike2 system (Cambridge Electronic Design, Cambridge, UK). After the brain was exposed, a microinjection pipette (tip diameter 20-30 μm) was advanced into the PVN in accordance with the stereotactic co-ordinates: 1.6-2.0 mm caudal to the bregma, 0.5 mm lateral to the midline and 7.0-7.5 mm ventral to the dura. The microinjection was performed using a Nanoject II (Drummond Scientific Company) and monitored using a surgical microscope as described previously (Li & Pan, 2006, 2007; Qiao et al. 2017). […] At the end of each experiment, the electrical background noise was measured after the proximal end of renal nerve was crushed at the end of each experiment. To determine the location of the injection site and diffusion of the drugs in the PVN, 5% rhodamine-labelled fluorescent microspheres (0.04 μm; Molecular Probes) were included in the injection solution. Rats were excluded from the data analysis if the microinjections were misplaced outside the PVN.

[3] = molecular target: T1, N-type Ca2+ channels (Cav2.2, Cavb1, α2δ-1) (UniProt P54290+Q00975); assay: VACC (N-type Ca2+ channel) currents in HEK293 cells; format: cell-based; details: HEK293 cotransfected with Cav2.2, Cavb1 and α2δ-1, 60 min
T1 construct: expressed in transfected cells; host or cells: HEK293

[4] = molecular target: T2, NMDARs of RVLM-projecting PVN neurons (Rattus norvegicus, UniProt P35439+Q00959+Q00960); assay: Recordings of RVLM-projecting PVN neurons in slices of WKY rats and SHRs; format: cell-based
T2 construct: from tissue; host or cells: rat hypothalamic slices containing the PVN (Sprague-Dawley, WKY, SHR) and synaptosomes made from them

[5] = molecular target: presynaptic NMDARs of spinal lamina II neurons (Rattus norvegicus, UniProt P35439+Q00959+Q00960)
Chain of presynaptic NMDARs of spinal lamina II neurons (Q00959 20-1464 limits assumed, other chains not shown): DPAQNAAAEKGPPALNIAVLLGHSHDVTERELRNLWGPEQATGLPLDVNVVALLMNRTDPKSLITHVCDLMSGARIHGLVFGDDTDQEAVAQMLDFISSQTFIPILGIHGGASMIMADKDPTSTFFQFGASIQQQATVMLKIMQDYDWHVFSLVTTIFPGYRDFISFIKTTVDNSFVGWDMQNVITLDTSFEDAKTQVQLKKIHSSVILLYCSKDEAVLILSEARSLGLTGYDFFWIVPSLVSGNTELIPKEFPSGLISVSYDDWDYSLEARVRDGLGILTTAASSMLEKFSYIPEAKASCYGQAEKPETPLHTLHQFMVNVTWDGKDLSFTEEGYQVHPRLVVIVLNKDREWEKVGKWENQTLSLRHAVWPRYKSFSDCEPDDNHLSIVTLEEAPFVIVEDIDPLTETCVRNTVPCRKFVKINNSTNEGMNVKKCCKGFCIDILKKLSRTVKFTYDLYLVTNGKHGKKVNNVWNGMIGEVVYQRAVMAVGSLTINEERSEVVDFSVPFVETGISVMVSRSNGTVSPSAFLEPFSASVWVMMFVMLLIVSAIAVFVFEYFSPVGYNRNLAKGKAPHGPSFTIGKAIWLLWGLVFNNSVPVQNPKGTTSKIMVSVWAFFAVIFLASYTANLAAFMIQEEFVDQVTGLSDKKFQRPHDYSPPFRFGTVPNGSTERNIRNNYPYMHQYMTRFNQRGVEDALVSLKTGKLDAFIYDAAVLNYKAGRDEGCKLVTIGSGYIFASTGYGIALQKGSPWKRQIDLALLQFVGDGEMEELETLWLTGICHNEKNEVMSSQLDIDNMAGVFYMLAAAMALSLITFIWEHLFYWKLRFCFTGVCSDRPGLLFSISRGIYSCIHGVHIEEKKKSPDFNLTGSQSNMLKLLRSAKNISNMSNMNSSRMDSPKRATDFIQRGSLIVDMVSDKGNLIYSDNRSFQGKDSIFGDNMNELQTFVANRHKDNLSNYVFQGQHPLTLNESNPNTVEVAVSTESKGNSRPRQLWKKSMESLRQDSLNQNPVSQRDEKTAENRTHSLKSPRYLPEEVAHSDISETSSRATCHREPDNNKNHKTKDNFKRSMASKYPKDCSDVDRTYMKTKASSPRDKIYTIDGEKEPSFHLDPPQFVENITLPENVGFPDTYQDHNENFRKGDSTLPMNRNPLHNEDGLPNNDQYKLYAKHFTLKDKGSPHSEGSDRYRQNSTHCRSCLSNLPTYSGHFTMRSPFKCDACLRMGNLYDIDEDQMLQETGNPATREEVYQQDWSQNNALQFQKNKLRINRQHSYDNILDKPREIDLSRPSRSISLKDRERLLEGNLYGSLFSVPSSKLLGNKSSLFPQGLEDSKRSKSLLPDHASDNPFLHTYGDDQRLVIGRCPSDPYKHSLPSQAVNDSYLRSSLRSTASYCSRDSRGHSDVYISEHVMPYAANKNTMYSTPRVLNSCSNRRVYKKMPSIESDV
Chain of presynaptic NMDARs of spinal lamina II neurons (Q00960 27-1482, other chains not shown): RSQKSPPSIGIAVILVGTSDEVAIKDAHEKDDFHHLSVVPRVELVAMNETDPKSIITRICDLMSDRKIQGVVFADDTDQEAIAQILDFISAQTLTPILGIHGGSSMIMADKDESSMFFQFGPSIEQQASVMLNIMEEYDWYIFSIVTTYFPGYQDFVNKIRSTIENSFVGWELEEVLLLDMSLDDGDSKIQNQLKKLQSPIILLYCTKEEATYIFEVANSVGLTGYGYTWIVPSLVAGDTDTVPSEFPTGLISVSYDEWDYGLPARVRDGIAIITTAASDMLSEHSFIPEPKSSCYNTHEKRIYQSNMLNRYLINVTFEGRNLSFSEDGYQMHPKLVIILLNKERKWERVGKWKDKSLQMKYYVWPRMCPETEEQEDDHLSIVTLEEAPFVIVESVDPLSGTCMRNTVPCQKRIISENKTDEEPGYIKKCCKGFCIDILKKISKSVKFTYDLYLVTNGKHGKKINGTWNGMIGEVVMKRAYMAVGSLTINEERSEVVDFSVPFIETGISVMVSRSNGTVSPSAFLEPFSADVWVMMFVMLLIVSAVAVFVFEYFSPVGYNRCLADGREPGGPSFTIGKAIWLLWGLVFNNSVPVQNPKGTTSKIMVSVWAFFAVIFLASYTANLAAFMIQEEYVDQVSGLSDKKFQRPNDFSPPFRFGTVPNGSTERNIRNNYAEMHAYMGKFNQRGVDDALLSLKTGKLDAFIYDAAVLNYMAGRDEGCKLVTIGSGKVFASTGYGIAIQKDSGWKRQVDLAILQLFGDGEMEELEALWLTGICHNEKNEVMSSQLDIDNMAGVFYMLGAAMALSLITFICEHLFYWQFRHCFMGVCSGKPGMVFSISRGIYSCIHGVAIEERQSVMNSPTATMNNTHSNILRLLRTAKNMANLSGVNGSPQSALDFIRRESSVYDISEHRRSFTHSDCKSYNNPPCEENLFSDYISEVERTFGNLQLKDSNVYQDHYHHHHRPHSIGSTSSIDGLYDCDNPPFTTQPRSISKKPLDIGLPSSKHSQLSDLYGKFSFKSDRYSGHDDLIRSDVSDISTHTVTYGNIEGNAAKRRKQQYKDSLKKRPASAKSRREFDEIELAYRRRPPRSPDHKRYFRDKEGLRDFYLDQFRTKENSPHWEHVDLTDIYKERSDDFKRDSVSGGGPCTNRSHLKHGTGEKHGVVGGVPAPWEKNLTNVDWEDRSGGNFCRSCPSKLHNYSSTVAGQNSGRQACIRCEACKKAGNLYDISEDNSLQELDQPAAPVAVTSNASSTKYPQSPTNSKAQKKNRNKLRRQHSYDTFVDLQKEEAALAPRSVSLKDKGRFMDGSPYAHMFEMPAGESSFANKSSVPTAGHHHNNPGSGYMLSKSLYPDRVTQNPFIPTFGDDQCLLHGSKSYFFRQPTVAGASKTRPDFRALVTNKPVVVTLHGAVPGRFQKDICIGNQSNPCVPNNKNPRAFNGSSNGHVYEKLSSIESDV

[6] = molecular target: T3, α2δ-1 and NMDAR subunits in spinal cord synaptosomes (Rattus norvegicus, UniProt P35439+Q00959+Q00960); assay: Protein levels in spinal cord synaptosomes of treated slices (SNL, sham); format: cell-based; details: SNL rats; slices treated 30 min
T3 construct: from tissue; host or cells: rat lumbar spinal cord slices (lamina II neurons) and synaptosomes made from them
Experimental: PSD-95, a known postsynaptic protein, was used as an internal control.
Spinal cord synaptosome preparation: The spinal cord slices were pooled from 2 rats and were homogenized using glass-Teflon homogenizer in 10 volumes of ice-cold HEPES-buffered sucrose (0.32 M sucrose, 1 mM EGTA, and 4 mM HEPES at pH 7.4) containing the protease inhibitor cocktail (Sigma-Aldrich). The homogenate was centrifuged at 1,000×g for 10 min at 4° C. to remove the nuclei and large debris. […] The synaptosomal pellet was lysed via hypo-osmotic shock in 9 volumes of ice-cold HEPES-buffer with the protease inhibitor cocktail for 30 min. The lysate was centrifuged at 25,000×g for 20 min at 4° C. to obtain the synaptosomal membrane fraction, which was then dissolved in sodium dodecyl sulfate sample buffer at a final concentration of 0.25 μg/μl for immunoblotting. […] The α2δ-1Tat peptide and scrambled control peptide were synthesized by Bio Basic Inc. (Marham, Ontario, Canada) and validated by using liquid chromatography and mass spectrometry.

[7] = paclitaxel-treated rats, AP5 50 μM, pregabalin 20 μM, peptides 1 μM
[8] = vehicle-treated rats, AP5 50 μM, pregabalin 20 μM, peptides 1 μM

NCC1(CC(=O)O)CCCCC1 [gabapentin]
α2δ-1 co-expression-induced increase in the NMDAR current density ([1]; HEK293): completely reversed
NMDAR currents in cells expressing GluN1/GluN2A or GluN1/GluN2B alone ([1]; HEK293 without α2δ-1): had no effect
α2δ-1-reduced voltage-dependent Mg2+ block of GluN1/GluN2A NMDARs ([1]; at −40 and −60 mV): reversed this effect

YGRKKRRQRRRVSGLNPSLWSIFGLQFILLWLVSGSRHYLW (a2d1 peptide) [α2δ-1Tat peptide, 30-amino-acid peptide mimicking the C-terminal domain of α2δ-1 fused to the cell-penetrating peptide Tat]
ABP and RSNA ([2]; 50 nL bilaterally into the PVN): significantly decreased
duration of the effect on the mean ABP and RSNA ([2]; 50 nL into the PVN): more than 60 min
VACC (N-type Ca2+ channel) currents [3]: no effect
VACC (N-type Ca2+ channel) currents ([3]; listed as α2δ-1 Tat peptide): had no significant effect
puff NMDA currents of labelled PVN neurons ([4]; SHRs): restored
ratio of NMDAR-EPSCs to AMPAR-EPSCs ([4]; SHRs): normalized
baseline frequency of mEPSCs of labelled PVN neurons ([4]; SHRs, AP5 50 μmol L-1, gabapentin 100 μmol L-1, peptides 1 μmol L-1, 60 min): completely normalized
amplitude of evoked NMDAR-EPSCs of labelled PVN neurons ([4]; SHRs, gabapentin 100 μmol L-1, peptides 1 μmol L-1, 60 min): fully normalized
amplitude of puff NMDA currents ([4]; WKY rats): had no effect
frequency or amplitude of mEPSCs of labelled PVN neurons ([4]; WKY rats): had no effect
ratio of NMDAR-EPSCs to AMPAR-EPSCs ([4]; WKY rats): had no effect
amplitude of evoked AMPAR-EPSCs of labelled PVN neurons ([4]; WKY rats or SHRs): had no effect
amplitude of evoked NMDAR-EPSCs of labelled PVN neurons ([4]; WKY rats, gabapentin 100 μmol L-1, peptides 1 μmol L-1, 60 min): had no effect
reduced PPR of evoked EPSCs ([5]; paclitaxel-treated rats): fully reversed
increased amplitude of evoked monosynaptic EPSCs [5, 7]: completely reversed
increased frequency of mEPSCs of lamina II neurons [5, 7]: completely normalized
PPR of evoked EPSCs ([5]; vehicle-treated rats): had no effect
amplitude of evoked monosynaptic EPSCs [5, 8]: did not affect
frequency of mEPSCs of lamina II neurons [5, 8]: neither incubation with α2δ-1Tat peptide nor bath application of AP5 had any effect
increased protein levels of GluN1, GluN2A, GluN2B and α2δ-1 in spinal cord synaptosomes [6]: largely normalized
